Two molecules from PMC12903857 (Journal of the American Chemical Society, 2026) can be followed below.

One test deals with T1, 14-3-3σ (UniProt P31947 1-248).
T1 construct: 14-3-3σ (sigma isoform of 14-3-3, SFN), the protein titrated in the fluorescence anisotropy assays; With the covalent compounds of the FA assays C38 becomes modified in the sample; also called sigma isoform
T1 sequence (looked up): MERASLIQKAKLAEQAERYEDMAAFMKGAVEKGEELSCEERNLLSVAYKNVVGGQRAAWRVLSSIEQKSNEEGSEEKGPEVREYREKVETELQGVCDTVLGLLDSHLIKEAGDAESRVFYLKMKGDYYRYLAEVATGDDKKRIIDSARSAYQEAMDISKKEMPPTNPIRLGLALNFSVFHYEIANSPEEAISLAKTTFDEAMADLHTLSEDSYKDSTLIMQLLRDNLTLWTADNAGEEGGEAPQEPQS
Put plainly: fluorescence polarisation; fluorescence anisotropy protein titration: 14-3-3σ titrated into 10 nM labeled peptide in the presence of DMSO; apparent. The note with it: both partners purified. (In general: In fluorescence polarisation assays a small probe gives low polarisation when free and higher when bound to something large.)

A further test has as its target T2, B-RAF (NanoBRET fusion) (UniProt P15056 1-766).
T2 construct: B-RAF, full-length RAF client of the cell assays; Used in the 14-3-3σ/B-RAF and the B-RAF/C-RAF NanoBRET assays; the fusion partner may differ between them; The cell line is told for the first NanoBRET assays only; source: HEK293T, transfected, in cells; not shown: NanoLuciferase or HaloTag (from the NanoBRET method)
Put plainly: FRET or BRET; NanoBRET in HEK293T cells: RAF tagged with NanoLuciferase, 14-3-3σ with HaloTag/fluorescent HaloTag ligand; dose responses of compounds against DMSO. The conditions noted are these: partners not purified. A general note: In BRET a luciferase serves as donor, and the signal depends on an acceptor being close.

A further test has as its target T3, A-RAF (NanoBRET fusion) (UniProt P10398 1-606).
T3 construct: A-RAF, full-length RAF client of the cell assays; Used in the 14-3-3σ/A-RAF and the A-RAF/C-RAF NanoBRET assays; the fusion partner may differ between them; The cell line is told for the first NanoBRET assays only; source: HEK293T, transfected, in cells; not shown: NanoLuciferase or HaloTag (from the NanoBRET method)
The test is described as above. The conditions noted are these: partners not purified.

For test [1], the target named is T4, C-RAF-NanoLuciferase (Nluc) (UniProt P04049 1-648).
T4 construct: C-RAF, full-length RAF client of the cell assays; source: HEK293T, transfected, in cells
Described as above. The note with it: partners not purified.

Non-standard residues stand in square brackets, D forms with d. No end group written: not given here. pS = N[C@@H](COP(=O)(O)O)C(=O)O

T2 sequence (P15056 whole entry, the tested form may be a part): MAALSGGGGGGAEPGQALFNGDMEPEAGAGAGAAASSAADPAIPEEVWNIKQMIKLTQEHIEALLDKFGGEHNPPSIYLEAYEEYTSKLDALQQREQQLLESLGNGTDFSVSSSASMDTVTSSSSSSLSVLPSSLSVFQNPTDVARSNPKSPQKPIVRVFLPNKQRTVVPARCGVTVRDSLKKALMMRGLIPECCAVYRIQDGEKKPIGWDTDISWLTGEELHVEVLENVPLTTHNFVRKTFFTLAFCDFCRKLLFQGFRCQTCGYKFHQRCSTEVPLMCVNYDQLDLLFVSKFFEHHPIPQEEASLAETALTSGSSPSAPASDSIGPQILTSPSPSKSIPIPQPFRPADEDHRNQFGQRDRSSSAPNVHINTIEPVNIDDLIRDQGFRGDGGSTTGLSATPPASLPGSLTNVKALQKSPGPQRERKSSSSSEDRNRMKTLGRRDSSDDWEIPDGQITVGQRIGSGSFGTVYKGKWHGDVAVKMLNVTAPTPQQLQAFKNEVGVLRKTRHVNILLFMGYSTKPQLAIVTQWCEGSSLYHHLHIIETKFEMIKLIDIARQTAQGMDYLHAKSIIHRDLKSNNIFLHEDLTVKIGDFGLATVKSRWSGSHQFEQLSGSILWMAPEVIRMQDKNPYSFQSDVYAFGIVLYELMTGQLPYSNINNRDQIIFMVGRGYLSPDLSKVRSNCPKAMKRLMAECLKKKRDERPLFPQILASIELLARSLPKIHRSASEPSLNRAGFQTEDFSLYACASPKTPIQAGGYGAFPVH

QRST[pS]TPNVH (also: FAM label, site not given here) [FAM-labeled C-RAF259 peptide (10-mer)]: the Kd in the test with 14-3-3σ was 8.43 µM.

B1: 14-3-3σ-Halotag (HT) (natural protein, UniProt P31947 1-248, looked up)
chain: T1 sequence (looked up)
modifications: fluorescent HaloTag ligand on the HaloTag
notes: 14-3-3σ, full length, for NanoBRET; also called full-length 14-3-3σ; source: HEK293T, transfected, in cells
In the case of B1, in the test with B-RAF (NanoBRET fusion), the “fold increase (BRET signal) with 22” value came to 1.4 fold and the “fold increase (BRET signal) with 23” value was 1.4 fold. Moreover, in the test with A-RAF (NanoBRET fusion), the “fold increase (BRET signal) with 10 μM 22” value was determined as 1.6 fold and the “fold increase (BRET signal) with 10 μM 23” value is 1.7 fold. For the same molecule, in test [1], the “fold stabilization (BRET signal) with 22 against DMSO” value is 1.5 fold, the “fold stabilization (BRET signal) with 23 against DMSO” value came to 1.6 fold, the “fold stabilization (BRET signal) with 70 against DMSO” value was 1.3 fold and the “fold stabilization (BRET signal) with 78 against DMSO” value stood at 1.4 fold.
